B1: PRO236 (bispecific antibody, human IgG1, kappa, L234A L235A, N297G)
heavy: EVQLVESGGGLVQPGGSLRLSCAASGFTFSSYWMTWVRQAPGKGLEWVSSIKIKPDGYAASVKGRFTISRDNSKNTLYLQMNSLRAEDTAVYYCARLFYQYFARMDYWGQGTLVTVSSASTKGPSVFPLAPSSKSTSGGTAALGCLVKDYFPEPVTVSWNSGALTSGVHTFPAVLQSSGLYSLSSVVTVPSSSLGTQTYICNVNHKPSNTKVDKRVEPKSCDKTHTCPPCPAPEAAGGPSVFLFPPKPKDTLMISRTPEVTCVVVAVSHEDPEVKFNWYVDGVEVHNAKTKPREEQYGSTYRVVSVLTVLHQDWLNGKEYKCKVSNKALPAPIEKTISKAKGQPREPQVYTLPPSREEMTKNQVSLTCLVKGFYPSDIAVEWESNGQPENNYKTTPPVLDSDGSFFLYSKLTVDKSRWQQGNVFSCSVMHEALHNHYTQKSLSLSPGGGGGSGGGGSSDTGRPFVEMYSEIPEIIHMTEGRELVIPCRVTSPNITVTLKKFPLDTLIPDGKRIIWDSRKGFIISNATYKEIGLLTCEATVNGHLYKTNYLTHRQTNTIIDVVLSPSHGIELSVGEKLVLNCTARTELNVGIDFNWEYPSSKHQHKKLVNRDLKTQSGSEMKKFLSTLTIDGVTRSDQGLYTCAASSGLMTKKNSTFVRVHEK
light: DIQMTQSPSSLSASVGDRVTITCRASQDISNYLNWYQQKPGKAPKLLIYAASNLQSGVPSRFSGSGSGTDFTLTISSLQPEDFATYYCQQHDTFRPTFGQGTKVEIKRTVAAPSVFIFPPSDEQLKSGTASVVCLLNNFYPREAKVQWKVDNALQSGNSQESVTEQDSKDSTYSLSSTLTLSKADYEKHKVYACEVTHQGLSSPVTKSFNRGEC
notes: Purified as a fusion protein dimer
B2: PRO241 (bispecific antibody, IgG1)
chain: SDTGRPFVEMYSEIPEIIHMTEGRELVIPCRVTSPNITVTLKKFPLDTLIPDGKRIIWDSRKGFIISNATYKEIGLLTCEATVNGHLYKTNYLTHRQTNTIIDVVLSPSHGIELSVGEKLVLNCTARTELNVGIDFNWEYPSSKHQHKKLVNRDLKTQSGSEMKKFLSTLTIDGVTRSDQGLYTCAASSGLMTKKNSTFVRVHEKGGGGSDKTHTCPPCPAPEAAGGPSVFLFPPKPKDTLMISRTPEVTCVVVAVSHEDPEVKFNWYVDGVEVHNAKTKPREEQYGSTYRVVSVLTVLHQDWLNGKEYKCKVSNKALPAPIEKTISKAKGQPREPQVYTLPPSREEMTKNQVSLTCLVKGFYPSDIAVEWESNGQPENNYKTTPPVLDSDGSFFLYSKLTVDKSRWQQGNVFSCSVMHEALHNHYTQKSLSLSPGGGGGSGGGGSGGGGSEVQLVQSGAEVKKPGASVKVSCKASGYTFTGYYINWVRQAPGQGLEWMGIISPNQGTTGYAQKFQGRVTMTRDTSISTAYMELSSLRSEDTAVYYCARGNYDHLDYWGQGTLVTVSSGGGGSGGGGSGGGGSGGGGSDIQMTQSPSSLSASVGDRVTITCRASQGISNYLNWYQQKPGKAPKLLIYDASTLQSGVPSRFSGSGSGTDFTLTISSLQPEDFATYYCQQDWHTLPVTFGQGTKVEIK
notes: as for B1
B3: PRO238 (bispecific antibody)
heavy: EVQLVESGGGLVQPGGSLRLSCAASGFSFTSSSVSWVRQAPGKGLEWVGLIYPYNGFNYYADSVKGRFTISADTSKNTAYLQMNSLRAEDTAVYYCARNALYGSGGYYAMDYWGQGTLVTVSSASTKGPSVFPLAPSSKSTSGGTAALGCLVKDYFPEPVTVSWNSGALTSGVHTFPAVIQSSGLYSLSSVVTVPSSSLGTQTYICNVNHKPSNTKVDKRVEPKSCDKTHTCPPCPAPEAAGGPSVFLFPPKPKDTLMISRTPEVTCVVVAVSHEDPEVKFNWYVDGVEVHNAKTKPREEQYGSTYRVVSVLTVLHQDWLNGKEYKCKVSNKALPAPIEKTISKAKGQPREPQVYTLPPSREEMTKNQVSLTCLVKGFYPSDIAVEWESNGQPENNYKTTPPVLDSDGSFFLYSKLTVDKSRWQQGNVFSCSVMHEALHNHYTQKSLSLSPGGGGGSGGGGSSDTGRPFVEMYSEIPEIIHMTEGRELVIPCRVTSPNITVTLKKFPLDTLIPDGKRIIWDSRKGFIISNATYKEIGLLTCEATVNGHLYKTNYLTHRQTNTIIDVVLSPSHGIELSVGEKLVLNCTARTELNVGIDFNWEYPSSKHQHKKLVNRDLKTQSGSEMKKFLSTLTIDGVTRSDQGLYTCAASSGLMTKKNSTFVRVHEK
light: DIQMTQSPSSLSASVGDRVTITCRASQDVSTAVAWYQQKPGKAPKLLIYSASFLYSGVPSRFSGSGSGTDFTLTISSLQPEDFATYYCQQSYATLPTFEQGTKVEIKRTVAAPSVFIFPPSDEQLKSGTASVVCLLNNFYPREAKVQWKVDNALQSGNSQESVTEQDSKDSTYSLSSTLTLSKADYEKHKVYACEVTHQGLSSPVTKSFNRGEC
notes: as for B1
B4: PRO242 (bispecific antibody, IgG1)
chain: SDTGRPFVEMYSEIPEIIHMTEGRELVIPCRVTSPNITVTLKKFPLDTLIPDGKRIIWDSRKGFIISNATYKEIGLLTCEATVNGHLYKTNYLTHRQTNTIIDVVLSPSHGIELSVGEKLVLNCTARTELNVGIDFNWEYPSSKHQHKKLVNRDLKTQSGSEMKKFLSTLTIDGVTRSDQGLYTCAASSGLMTKKNSTFVRVHEKGGGGSDKTHTCPPCPAPEAAGGPSVFLFPPKPKDTLMISRTPEVTCVVVAVSHEDPEVKFNWYVDGVEVHNAKTKPREEQYGSTYRVVSVLTVLHQDWLNGKEYKCKVSNKALPAPIEKTISKAKGQPREPQVYTLPPSREEMTKNQVSLTCLVKGFYPSDIAVEWESNGQPENNYKTTPPVLDSDGSFFLYSKLTVDKSRWQQGNVFSCSVMHEALHNHYTQKSLSLSPGGGGGSGGGGSGGGGSEVQLVESGGGLVQPGGSLRLSCAASGFSFTSSSVSWVRQAPGKGLEWVGLIYPYNGFNYYADSVKGRFTISADTSKNTAYLQMNSLRAEDTAVYYCARNALYGSGGYYAMDYWGQGTLVTVSSGGGGSGGGGSGGGGSGGGGSDIQMTQSPSSLSASVGDRVTITCRASQDVSTAVAWYQQKPGKAPKLLIYSASFLYSGVPSRFSGSGSGTDFTLTISSLQPEDFATYYCQQSYATLPTFEQGTKVEIK
notes: as for B1
B5: PRO237 (bispecific antibody, human IgG1, kappa, L234A L235A, N297G)
heavy: EVQLVQSGAEVKKPGASVKVSCKASGYTFTGYYINWVRQAPGQGLEWMGIISPNQGTTGYAQKFQGRVTMTRDTSISTAYMELSSLRSEDTAVYYCARGNYDHLDYWGQGTLVTVSSASTKGPSVFPLAPSSKSTSGGTAALGCLVKDYFPEPVTVSWNSGALTSGVHTFPAVIQSSGLYSLSSVVTVPSSSLGTQTYICNVNHKPSNTKVDKRVEPKSCDKTHTCPPCPAPEAAGGPSVFLFPPKPKDTLMISRTPEVTCVVVAVSHEDPEVKFNWYVDGVEVHNAKTKPREEQYGSTYRVVSVLTVLHQDWLNGKEYKCKVSNKALPAPIEKTISKAKGQPREPQVYTLPPSREEMTKNQVSLTCLVKGFYPSDIAVEWESNGQPENNYKTTPPVLDSDGSFFLYSKLTVDKSRWQQGNVFSCSVMHEALHNHYTQKSLSLSPGGGGGSGGGGSSDTGRPFVEMYSEIPEIIHMTEGRELVIPCRVTSPNITVTLKKFPLDTLIPDGKRIIWDSRKGFIISNATYKEIGLLTCEATVNGHLYKTNYLTHRQTNTIIDVVLSPSHGIELSVGEKLVLNCTARTELNVGIDFNWEYPSSKHQHKKLVNRDLKTQSGSEMKKFLSTLTIDGVTRSDQGLYTCAASSGLMTKKNSTFVRVHEK
light: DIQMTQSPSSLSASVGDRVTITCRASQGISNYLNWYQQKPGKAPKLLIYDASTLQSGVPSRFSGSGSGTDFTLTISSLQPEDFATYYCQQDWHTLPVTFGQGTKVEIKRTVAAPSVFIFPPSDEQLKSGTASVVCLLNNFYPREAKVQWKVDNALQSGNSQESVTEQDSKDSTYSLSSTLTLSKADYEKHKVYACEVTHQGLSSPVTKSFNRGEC
notes: as for B1

T1 sequence (P15692 other isoform, or with tags, fused parts or gaps limits assumed): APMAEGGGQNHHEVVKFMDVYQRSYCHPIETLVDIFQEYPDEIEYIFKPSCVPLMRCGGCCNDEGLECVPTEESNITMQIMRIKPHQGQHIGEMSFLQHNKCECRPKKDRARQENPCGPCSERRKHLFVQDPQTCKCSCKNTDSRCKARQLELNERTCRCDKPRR

This assay addresses T1, human VEGF165 protein (human, UniProt P15692-4 27-191).
T1 construct: Immobilised on the ELISA plate
As to the kind of experiment: ELISA, human VEGF165 immobilised on plate. An excerpt: Next, the anti-human immunoglobulin G antibody and the anti-horseradish peroxidase (HRP) antibody were sequentially allowed to bind.
(In general: In an ELISA, binding on a coated surface is turned into a signal by an enzyme label.)
For the molecule B1, the binding result is on record as “binds”.

In the case of B2, the binding result is listed as “binds”.

Consider B3, for which the binding result is given as “binds”.

With B4, the binding result is given as “binds”.

As to B5, the binding result is “binds”.

(Values after US20250074974A1 (KANAPH THERAPEUTICS, published 2025).)
